Assay results taken from publication PMC3836737, “Brd4 Is Displaced from HPV Replication Factories as They Expand and Amplify Viral DNA” (PLoS Pathogens, 2013).
Where a chain is given by its changes, count along the chain named.

B1: HPV16 E2 I73L (natural protein)
chain: METLCQRLNVCQDKILTHYENDSTDLRDHIDYWKHMRLECAIYYKAREMGFKHINHQVVPTLAVSKNKALQALELQLTLETIYNSQYSNEKWTLQDVSLEVYLTAPTGCIKKHGYTVEVQFDGDICNTMHYTNWTHIYICEEASVTVVEGQVDYYGLYYVHEGIRTYFVQFKDDAEKYSKNKVWEVHAGGQVILCPTSVFSSNEVSSPEIIRQHLANHPAATHTKAVALGTEETQTTIQRPRSEPDTGNPCHTTKLLHRDSVDSAPILTAFNSSHKGRINCNSNTTPIVHLKGDANTLKCLRYRFKKHCTLYTAVSSTWHWTGHNVKHKSAIVTLTYDSEWQRDQFLSQVKIPKTITVSTGFMSI
modifications: 35S-labeled
notes: source: in vitro translated (TNT Coupled Reticulocyte Lysate System, Promega), 35S-labeled
B2: HPV16 E2 R37K (natural protein)
chain: B1 chain with R37K, L73I
modifications: 35S-labeled
notes: as for B1

Molecular target: T1, Purified FLAG-tagged Brd4 (UniProt O60885 1-1362)
T1 construct: source: purified, described previously [13]
Assay: pull-down
Conditions: one partner purified

Binder | percent of wildtype E2 binding
B1 | < 20 % of wildtype E2 binding
B2 | < 20 % of wildtype E2 binding
